According to the supplement of paper PMC12764529:
± gives the half width of the 95% confidence interval.

Tests used:
[1] = folding stability dG unfold from trypsin proteolysis; higher = more stable
Summary of the method: (§1)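 Bayesian fitting of sequencing counts gave K50 for each design. Unfolding free energy followed by setting this against a sequence-predicted unfolded-state K50 and a shared folded-state K50, either per protease or with trypsin and chymotrypsin combined. The designs, under 80 residues and lacking cysteine, were digested in a PA-tagged cDNA display format at 11 threefold-diluted protease concentrations and without protease, and only those with AlphaFold2 dimer inter-PAE above 15 were kept.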

[2] = folding stability dG unfold from chymotrypsin proteolysis; higher = more stable
Summary of the method: as §1

[3] = folding stability dG unfold (combined trypsin and chymotrypsin); higher = more stable
Summary of the method: as §1

| Sequence | folding stability dG unfold [1] [kcal/mol] | folding stability dG unfold [2] [kcal/mol] | folding stability dG unfold [3] [kcal/mol] |
| --- | --- | --- | --- |
| SAGGSAGGEKEYIIKIKLEMPNGREMKHWFPFKTVEQIKDQLRKLPDPNYKIDDVEIMPADELKSAGGSAGG [r6_297_TrROS] | -0.237 ± 0.14 | 0.594 ± 0.15 | 0.263 ± 0.12 |
| SAGGSAGGEKKGKPPVKIVIKVRDVDTGETRTITLTIEPDMTVEEIRELLRALLPPGAEVEIVPSAGGSAGG [r6_440_TrROS_Hall] | 1.6 ± 0.052 | 3.45 ± 0.15 | 3.08 ± 0.16 |
| SAGGSAGGELPPPPLLVVRVTVRRDGKELELELVVPSLEEALEALRALLPEEDLEIRVEVRLLPSAGGSAGG [r6_113_TrROS_Hall] | 2.12 ± 0.089 | 2.92 ± 0.16 | 2.67 ± 0.2 |
| SAGGSAGGENNIEVYYVEVKVPDPSIPLSVVLEKLPLPPEFLTVTPVEVKPPDGTVLIAIYRDSSAGGSAGG [r6_955_TrMRF] | 0.516 ± 0.02 | -0.0815 ± 0.14 | 0.409 ± 0.089 |
| SAGGSAGGEPPPVVITVTVRNPATGETVKATAVLNPDGTLQVTVTRPDGSKQTFTATISAEALKSAGGSAGG [r6_588_TrROS_Hall] | 2.76 ± 0.33 | 3.86 ± 0.15 | 3.63 ± 0.34 |
| SAGGSAGGEPVKIEWEPIGRDPNGAFKFRLIIRDPDGTVQRTEIWINPNGGMQVETETIPPEDNSAGGSAGG [r6_263_TrROS] | 1.92 ± 0.065 | 2.15 ± 0.085 | 2.13 ± 0.14 |
| SAGGSAGGEWVIINIMFRFPPGDPNIKIEIKFPGLPKDMKIEYSIFPTDNWYYIMVSIWVPPNASAGGSAGG [r6_482_TrROS] | 3.66 ± 0.29 | 5.16 ± 0.15 | 4.85 ± 0.34 |
| SAGGSAGGFKIRPIGVDDNYIVFRFRPDDPEALKKLGFKITGVEESGGSVEIIFRMPPEAKDLISAGGSAGG [r6_109_TrROS] | 0.781 ± 0.12 | 0.399 ± 0.16 | 0.584 ± 0.12 |
| SAGGSAGGGDAESYAKEKGFVEIKVTKLPDGSERVTAKYPDGTTADILYTPGQGTFTLLETKKESAGGSAGG [r6_906_JUSTAS] | 0.154 ± 0.034 | 0.407 ± 0.082 | 0.332 ± 0.078 |
| SAGGSAGGGGPGAPAVPTVSINIKIEEGEKVTIRNGTNKDEIIKSTKEEAEKKGKKVTVETVEGSAGGSAGG [r6_869_JUSTAS] | -0.273 ± 0.28 | 1.26 ± 0.24 | 0.883 ± 0.28 |
| SAGGSAGGGKVLLEIYVPSEVPSVEELVEKLESEGFEVVKVESVPEGDYVRILVEKDVPPESIESAGGSAGG [r6_601_TrMRF] | 1.28 ± 0.066 | 1.71 ± 0.15 | 1.57 ± 0.11 |
| SAGGSAGGGLDPVPIKRVTVLRNPETDEYVVLIENEDGLPYAFPFDSLEDAERFVRRLVEEGYLSAGGSAGG [r6_65_TrMRF] | 4.76 ± 0.09 | 5.01 ± 0.061 | 4.967 ± 0.047 |
| SAGGSAGGGLIEIIPNTLKAKIINPKTGKVEEIEFSNIDELIEEIKKKYPNVDFKILPNGIILGSAGGSAGG [r6_286_TrMRF] | 3.14 ± 0.16 | 2.82 ± 0.07 | 3.05 ± 0.19 |
| SAGGSAGGGMMLTLSSQTTQTSYDPSGLSTTLSLTTNPLGGTTVVTTTTVPGTGEVSVTTTPSSSAGGSAGG [r6_977_JUSTAS] | 1.32 ± 0.024 | 0.508 ± 0.065 | 1.04 ± 0.045 |
| SAGGSAGGGMPMNIKVEEITSETIPPDVTVSETKVIDPSGKELKYLTVTTVRTDGKTSVLTVEGSAGGSAGG [r6_830_JUSTAS] | 0.201 ± 0.087 | -0.58 ± 0.56 | -0.0271 ± 0.31 |
| SAGGSAGGGMVKREIKVTVTRLPESDVWLVTVTTKIGDKWEIIPVPVAAPADLSAEELAKEVLESAGGSAGG [r6_21_JUSTAS] | 1.09 ± 0.036 | 0.751 ± 0.087 | 0.939 ± 0.11 |
| SAGGSAGGGPRAVPVGELELVLGDLVVRVRFFRNPESDSVSVRVEVRPLPPISAEELARLGEEGSAGGSAGG [r6_177_TrMRF] | 1.67 ± 0.062 | 3.52 ± 0.049 | 2.91 ± 0.15 |
| SAGGSAGGGRLLIDRAFDSLEDIEEFLRELETPALVHLPDGTELFYERGDGFTEIHVIPPGELGSAGGSAGG [r6_641_TrMRF] | 0.277 ± 0.072 | 1.26 ± 0.053 | 1 ± 0.099 |
| SAGGSAGGGRRLLIEADSEELRELLEALPPEELKNVRVYGPGGVEFPAGEIEKYKYGPLLIEVPSAGGSAGG [r6_428_TrMRF] | 0.174 ± 0.099 | 0.756 ± 0.18 | 0.669 ± 0.1 |
| SAGGSAGGGSLTPLSEDETTITLRLSPSLDEVLKELGLTVTGVEEEGETVTVTVKVSPEVKEKLSAGGSAGG [r6_109_JUSTAS] | 0.13 ± 0.062 | -0.183 ± 0.2 | 0.00369 ± 0.19 |
| SAGGSAGGGSLTVTTDPDGTQTVTLPDGRTFTFTNPYGVTRLVRARPDDGFEVWLQVDGKWYPLSAGGSAGG [r6_903_TrMRF] | 0.96 ± 0.022 | 1.88 ± 0.053 | 1.57 ± 0.031 |
